Consider two molecules from paper PMC9945983 (Proceedings of the National Academy of Sciences of the …, 2023).

Data set [1] deals with the molecule itself. Put plainly: SEC-MALS. A general note: In gel filtration, larger molecules generally elute earlier.
Data set [2] addresses T1, PARC6^685–819 as part of the PARC6^685–819–PDV1^263–272 fusion protein (Arabidopsis thaliana, UniProt Q8VY16 685-819).
T1 sequence (looked up): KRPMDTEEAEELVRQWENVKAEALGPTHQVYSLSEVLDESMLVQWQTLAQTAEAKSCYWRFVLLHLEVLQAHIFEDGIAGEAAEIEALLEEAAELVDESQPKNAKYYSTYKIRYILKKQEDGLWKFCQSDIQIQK
Briefly: crystal structure.

B1: PARC6^640–819 (PARC6C), C-terminal domain of PARALOG OF ARC6 (domain or fragment, Arabidopsis thaliana, UniProt Q8VY16 640-819, looked up)
chain: NGIVGNIKVLIDMLKMHCGEHPDALYLKSSGQSATSLSHSASELHKRPMDTEEAEELVRQWENVKAEALGPTHQVYSLSEVLDESMLVQWQTLAQTAEAKSCYWRFVLLHLEVLQAHIFEDGIAGEAAEIEALLEEAAELVDESQPKNAKYYSTYKIRYILKKQEDGLWKFCQSDIQIQK
modifications: intramolecular disulfide bond C657-C741 under oxidized conditions
The stoichiometry N is a count of units in the complex or per binding partner. Take B1: the “stoichiometry N” value in data set [1] was 2.

Consider DHLDVMMARG (peptide, UniProt Q9FK13 263-272, looked up) [PDV1C (PDV1^263–272) as part of the PARC6^685–819–PDV1^263–272 fusion protein], for which, in data set [2], the binding result is recorded as “binds”.
